According to patent US6365161:

How the values were obtained:
[1] = target: human FcγRI (CD64) on cells (human) (UniProt P12314); assay: flow cytometry, fluorescein-conjugated antibody on peripheral blood monocytes
[2] = target: soluble fusion protein consisting of the extracellular domain of human FcγRI and human IgM heavy chain (sFcγRI-µ) (human) (UniProt P12314); assay: ELISA on captured FcγRI/IgM heavy chain fusion protein, against a nonspecific human IgG1
Chain of soluble fusion protein consisting of the extracellular domain of human FcγRI and human IgM heavy chain (sFcγRI-µ) (human) (P12314 other isoform, or with tags, fused parts or gaps limits assumed): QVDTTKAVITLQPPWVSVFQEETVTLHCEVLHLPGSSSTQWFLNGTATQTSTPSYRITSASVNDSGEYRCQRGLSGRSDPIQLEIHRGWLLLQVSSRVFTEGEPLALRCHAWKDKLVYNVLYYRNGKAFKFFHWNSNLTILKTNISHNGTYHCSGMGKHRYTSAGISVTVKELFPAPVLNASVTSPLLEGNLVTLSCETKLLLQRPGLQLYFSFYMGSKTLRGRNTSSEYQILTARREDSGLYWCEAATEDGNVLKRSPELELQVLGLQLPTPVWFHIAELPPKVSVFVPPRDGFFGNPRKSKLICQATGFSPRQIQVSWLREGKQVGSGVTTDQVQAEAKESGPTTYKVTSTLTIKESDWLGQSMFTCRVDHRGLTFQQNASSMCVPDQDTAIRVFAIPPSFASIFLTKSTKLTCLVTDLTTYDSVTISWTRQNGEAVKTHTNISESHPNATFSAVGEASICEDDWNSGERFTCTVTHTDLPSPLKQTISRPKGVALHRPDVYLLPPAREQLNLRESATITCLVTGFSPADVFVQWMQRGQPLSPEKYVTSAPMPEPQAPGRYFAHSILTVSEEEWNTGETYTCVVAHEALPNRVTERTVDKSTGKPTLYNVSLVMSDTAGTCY

Chain of human FcγRI (CD64) on cells (human) (P12314 16-374): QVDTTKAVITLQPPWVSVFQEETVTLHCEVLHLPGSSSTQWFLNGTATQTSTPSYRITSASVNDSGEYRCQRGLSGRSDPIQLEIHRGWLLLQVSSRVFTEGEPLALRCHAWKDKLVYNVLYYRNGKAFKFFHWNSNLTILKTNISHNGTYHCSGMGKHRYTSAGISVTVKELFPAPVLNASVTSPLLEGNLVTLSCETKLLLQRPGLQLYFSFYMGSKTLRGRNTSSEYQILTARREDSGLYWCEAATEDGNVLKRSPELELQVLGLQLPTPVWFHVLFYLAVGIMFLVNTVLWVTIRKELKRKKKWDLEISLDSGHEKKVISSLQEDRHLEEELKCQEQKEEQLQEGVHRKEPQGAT

Antibody sites per cell (antibody sites per cell) [1]: 10500
percent of binding via the Fv portion [2]: > 95%
B1: humanized anti-FcγRI antibody H22 (KOL VH/REI Vκ mAb) (antibody, from a related filing, V domains shown)
VH: EVQLVESGGGVVQPGRSLRLSCSSSGFIFSDNYMYWVRQAPGKGLEWVATISDGGSYTYYPDSVKGRFTISRDNSKNTLFLQMDSLRPEDTGVYFCARGYYRYEGAMDYWGQGTPVTVSS
VL: DIQLTQSPSSLSASVGDRVTITCKSSQSVLYSSNQKNYLAWYQQKPGKAPKLLIYWASTRESGVPSRFSGSGSGTDFTFTISSLQPEDIATYYCHQYLSSWTFGQGTKVEIK
